Experimental data reported in PMC10983868 (bioRxiv, 2025).

Assays:
[1] = biological target: soluble biotinylated TcdB fragment (1401-1616) (Clostridioides difficile VP10463, UniProt P18177, biotin); test: flow cytometry on cells
[2] = biological target: Clostridium difficile toxin B (TcdB) (Clostridium difficile, UniProt P18177); test: flow cytometry on cells
Clostridium difficile toxin B (TcdB), sequence (P18177 whole entry): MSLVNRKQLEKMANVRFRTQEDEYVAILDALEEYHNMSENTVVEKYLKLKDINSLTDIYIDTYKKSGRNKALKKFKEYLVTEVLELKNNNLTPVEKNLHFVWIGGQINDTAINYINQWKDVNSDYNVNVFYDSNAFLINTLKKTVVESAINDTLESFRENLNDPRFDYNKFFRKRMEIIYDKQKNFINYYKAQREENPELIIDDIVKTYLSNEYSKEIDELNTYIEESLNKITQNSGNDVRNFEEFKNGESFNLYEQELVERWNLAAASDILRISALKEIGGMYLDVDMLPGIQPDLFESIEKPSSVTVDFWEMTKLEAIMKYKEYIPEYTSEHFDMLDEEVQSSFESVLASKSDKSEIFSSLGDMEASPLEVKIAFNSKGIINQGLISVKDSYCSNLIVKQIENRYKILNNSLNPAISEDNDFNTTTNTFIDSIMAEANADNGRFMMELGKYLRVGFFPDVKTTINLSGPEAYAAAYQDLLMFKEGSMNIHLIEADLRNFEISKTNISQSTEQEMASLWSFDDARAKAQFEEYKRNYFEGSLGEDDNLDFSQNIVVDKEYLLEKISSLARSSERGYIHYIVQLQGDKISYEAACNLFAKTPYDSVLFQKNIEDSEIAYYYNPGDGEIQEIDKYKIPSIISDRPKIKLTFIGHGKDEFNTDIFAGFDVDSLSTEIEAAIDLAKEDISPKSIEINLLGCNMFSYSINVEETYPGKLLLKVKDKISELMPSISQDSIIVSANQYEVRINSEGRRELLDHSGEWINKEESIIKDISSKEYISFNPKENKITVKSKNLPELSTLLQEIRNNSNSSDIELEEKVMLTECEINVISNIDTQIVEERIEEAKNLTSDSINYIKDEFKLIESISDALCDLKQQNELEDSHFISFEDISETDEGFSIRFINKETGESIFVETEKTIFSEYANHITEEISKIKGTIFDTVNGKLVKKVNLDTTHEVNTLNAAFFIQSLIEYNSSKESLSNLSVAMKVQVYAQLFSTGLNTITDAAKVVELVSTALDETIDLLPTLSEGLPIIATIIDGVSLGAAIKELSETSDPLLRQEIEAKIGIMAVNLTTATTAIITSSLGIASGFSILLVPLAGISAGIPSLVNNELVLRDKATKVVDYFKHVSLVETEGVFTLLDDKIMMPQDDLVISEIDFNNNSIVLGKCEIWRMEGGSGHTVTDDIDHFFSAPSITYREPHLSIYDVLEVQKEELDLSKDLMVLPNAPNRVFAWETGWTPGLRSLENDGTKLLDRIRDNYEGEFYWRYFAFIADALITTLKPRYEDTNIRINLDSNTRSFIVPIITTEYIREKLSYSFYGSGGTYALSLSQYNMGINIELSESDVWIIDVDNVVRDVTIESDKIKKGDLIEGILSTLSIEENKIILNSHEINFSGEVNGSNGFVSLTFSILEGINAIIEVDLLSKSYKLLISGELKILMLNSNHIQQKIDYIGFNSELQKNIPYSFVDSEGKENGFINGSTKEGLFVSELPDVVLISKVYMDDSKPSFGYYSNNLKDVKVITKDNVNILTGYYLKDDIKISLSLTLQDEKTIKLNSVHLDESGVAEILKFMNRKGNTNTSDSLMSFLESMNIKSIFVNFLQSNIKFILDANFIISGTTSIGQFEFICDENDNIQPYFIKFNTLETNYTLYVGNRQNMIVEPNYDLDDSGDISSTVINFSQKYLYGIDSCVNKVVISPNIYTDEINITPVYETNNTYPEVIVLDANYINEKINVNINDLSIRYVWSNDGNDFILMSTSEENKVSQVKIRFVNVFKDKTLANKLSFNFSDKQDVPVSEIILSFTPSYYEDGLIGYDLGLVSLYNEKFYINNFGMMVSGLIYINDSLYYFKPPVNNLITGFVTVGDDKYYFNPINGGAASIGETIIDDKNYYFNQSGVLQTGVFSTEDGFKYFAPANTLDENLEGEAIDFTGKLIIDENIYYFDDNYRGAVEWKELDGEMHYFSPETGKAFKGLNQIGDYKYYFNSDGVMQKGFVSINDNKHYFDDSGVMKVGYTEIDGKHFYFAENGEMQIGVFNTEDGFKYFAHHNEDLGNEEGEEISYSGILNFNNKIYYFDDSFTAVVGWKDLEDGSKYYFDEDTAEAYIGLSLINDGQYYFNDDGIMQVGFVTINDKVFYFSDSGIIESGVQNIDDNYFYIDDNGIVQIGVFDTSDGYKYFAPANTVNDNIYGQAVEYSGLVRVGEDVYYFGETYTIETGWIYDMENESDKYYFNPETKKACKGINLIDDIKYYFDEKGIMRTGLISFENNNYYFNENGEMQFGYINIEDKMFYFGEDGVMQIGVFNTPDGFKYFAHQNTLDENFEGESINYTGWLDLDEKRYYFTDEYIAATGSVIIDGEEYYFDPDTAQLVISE

soluble biotinylated TcdB fragment (1401-1616), sequence (P18177 1401-1616): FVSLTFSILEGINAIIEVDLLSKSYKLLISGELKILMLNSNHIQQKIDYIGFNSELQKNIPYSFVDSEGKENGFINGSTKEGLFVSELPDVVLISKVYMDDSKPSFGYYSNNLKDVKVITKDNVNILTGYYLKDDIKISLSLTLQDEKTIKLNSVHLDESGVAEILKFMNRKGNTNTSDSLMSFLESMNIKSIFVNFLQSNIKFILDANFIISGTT

B1: scFv4-C-Myc construct displayed on yeast (scFv, V domains shown)
VH: EVQLVESGGGLVQPGGSLRLSCAASGFDLKEKYIHWVRQAPGKGLEWVARINVKTGSTRYADSVKGRFTISADTSKNTAYLQMNSLRAEDTAVYYCSRENRFGALTVWGQGTLVTVSS
VL: DIQMTQSPSSLSASVGDRVTITCTTSSYVPMLVSWYQQKPGKAPKLLIYSSVIRAPGVPSRFSGSRSGTDFTLTISSLQPEDFATYYCSVLQKDGNLVFGQGTKVEIK
B1: binds [1]; binds [2].
